For 23 molecules, optical density results are on record in patent US20210380703A1 (RIGEL PHARMACEUTICALS, published 2021).

To fix the notation:
B1: 373_H07 (antibody, V domains shown)
VH: EVQLLESGGGLVQPGGSLRLSCAASGFTFSSYSMNWVRQAPGKGLEWVAGINYNGGYTSYADSVKGRFTISRDNSKNTLYLQMNSLRAEDTAVYYCARGANWHDTHLDYWGQGTLVTVSS
VL: DIQMTQSPSSLSASVGDRVTITCRASQSIVTYLNWYQQKPGKAPKLLIYAASSLQSGVPSRFSGSGSGTDFTLTISSLQPEDFATYYCQQSYDSPLTFGGGTKVEIK
notes: Group III
B2: 374_F08 (antibody, V domains shown)
VH: B1 VH with S30D, A49S, T58K, H106A
VL: B1 VL with V30L, L33V, L47V, A51V, S52T, L54R, Q55A, S94T
notes: Group III
B3: 374_F06 (antibody, V domains shown)
VH: B1 VH with A49S, H106A
VL: B1 VL with V30I, T31S, L33V, L47V, S52T, Q55H, D93S, S94T
notes: Group III
B4: 374_B08 (antibody, V domains shown)
VH: B1 VH with S30D, H106A
VL: B1 VL with T31S, L33V, S52T, L54R, Q55H, D93E, S94L
notes: Group III
B5: 374_F07 (antibody, V domains shown)
VH: B1 VH with S30D, G50S, S59G
VL: B1 VL with V30L, T31S, L47V, A51V, S52T, Q55A, D93E
notes: Group III
B6: 374_D03 (antibody, V domains shown)
VH: B1 VH with S30D, T58K
VL: B1 VL with S52T, L54R, Q55A, S94T
notes: Group III
B7: 374_E10 (antibody, V domains shown)
VH: B1 VH with A49S, T58K, H106A
VL: B1 VL with V30L, T31S, S52T, L54R, Q55H
notes: Group III
B8: 374_C12 (antibody, V domains shown)
VH: B1 VH with T58K, H106A
VL: B1 VL with V30L, L47V, S52T, L54R, Q55A, Y92D, D93N
notes: Group III
B9: 374_B03 (antibody, V domains shown)
VH: B1 VH with S30D, A49S, H106A
VL: B1 VL with V30L, L47V, S52T, L54R, Q55A
notes: Group III
B10: 374_D06 (antibody, V domains shown)
VH: B1 VH with A49S, H106A
VL: B1 VL with V30L, T31S, L33V, L47V, S52T, L54R, Q55A
notes: Group III
B11: 374_D07 (antibody, V domains shown)
VH: B1 VH with S30D, A49S, G55S, T58K, H106A
VL: B1 VL with T31S, L47V, S52T, Q55A, D93N
notes: Group III
B12: 374_E12 (antibody, V domains shown)
VH: B1 VH with A49S, T58K, H106A
VL: B1 VL with V30L, T31S, L47V, S52T, L54R, Q55A, S94N
notes: Group III
B13: 374_G03 (antibody, V domains shown)
VH: B1 VH with S31D, A49S, H106A
VL: B1 VL with V30S, T31S, L47V, S52T, L54R, Q55A, Y92D, S94T
notes: Group III
B14: 374_C09 (antibody, V domains shown)
VH: B1 VH with S30D, S33G, A49S, G50S, T58K, S59G
VL: B1 VL with T31S, L47V, S52T, L54R, Q55A, D93E, S94L
notes: Group III
B15: 374_A06 (antibody, V domains shown)
VH: B1 VH with A49S, G50S, G55S
VL: B1 VL with V30L, T31S, L47V, S52T, L54R, Q55A
notes: Group III
B16: 373_H09 (antibody, V domains shown)
VH: B1 VH with S33G, G50S, G55S, T58K
VL: B1 VL with V30I, L47V, S52T, L54R, Q55A, Y92D
notes: Group III
B17: 374_D05 (antibody, V domains shown)
VH: B1 VH with S30D, A49S, G55S, S59G
VL: B1 VL with V30L, S52T, L54R, Q55A, S94T
notes: Group III
B18: 374_G08 (antibody, V domains shown)
VH: B1 VH with S30D, A49S, H106A
VL: B1 VL with V30L, L33V, L47V, S52T, L54R, Q55A
notes: Group III
B19: 374_B10 (antibody, V domains shown)
VH: B1 VH with A49S, G50S, G55S
VL: B1 VL with V30L, L33V, L47V, S52T, Q55A, S94T
notes: Group III
B20: 374_C01 (antibody, V domains shown)
VH: B1 VH with S30D, S33G, A49S, G55S, T58K, H106A
VL: B1 VL with V30L, S52T, L54R, Q55A, D93E, S94T
notes: Group III
B21: 374_A09 (antibody, V domains shown)
VH: B1 VH with A49S, G50S, T58K, S59G
VL: B1 VL with V30L, L33V, S52T, Q55A
notes: Group III
B22: 374_D10 (antibody, V domains shown)
VH: B1 VH with S33G, N35H, G50S
VL: B1 VL with V30L, L33V, S52T, L54R, Q55A, S94N
notes: Group III
B23: 374_B05 (antibody, V domains shown)
VH: B1 VH with S30D, A49S, G55S, H106A
VL: B1 VL with T31S, S52T, L54R, Q55H, D93E
notes: Group III

Substitutions are numbered along the chain they refer to.
Note: test concentration or dose not given here.

T3 sequence (P27037 20-135 limits assumed): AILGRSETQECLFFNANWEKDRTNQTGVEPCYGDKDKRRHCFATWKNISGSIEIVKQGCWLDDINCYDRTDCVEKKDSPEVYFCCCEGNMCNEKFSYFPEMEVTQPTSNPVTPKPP

One experiment addresses T1, biotinylated goat anti-human kappa light chain.
T1 construct: positive control of the ELISA
Nature of the experiment: ELISA, positive control. The procedure, abridged: (§1)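 ELISA measured binding of ACVR2A-specific monoclonal antibodies to human and mouse ACVR2A. Biotinylated goat anti-human kappa light chain served as positive control and human Fc as negative control.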
Background: ELISA stands for enzyme-linked immunosorbent assay.
B1 had an optical density of 3.23 OD.
B2 returned an optical density of 3.18 OD.
In the case of B3, the optical density worked out at 3.18 OD.
B4 registered an optical density of 3.12 OD.
Same read-out and setting: next, B5: 3.21 OD; B6: 3.02 OD; B7: 3.38 OD.
Still for that read-out and setting: next, B8: 3.15 OD; B9: 3.07 OD; B10: 3.12 OD.
The molecule B11 came in with an optical density of 3.26 OD.
In the case of B12, the optical density is 3.29 OD.
For the molecule B13, the optical density stood at 3.22 OD.
In the case of B14, the optical density was determined as 3.14 OD.
B15 yielded an optical density of 3 OD.
The same measure, in the same setting: next, B16: 3.08 OD; B17: 3.15 OD; B18: 3.21 OD.
B19 registered an optical density of 3 OD.
Turning to B20, the optical density was found to be 3.08 OD.
Same read-out and setting: in the case of B21 it was 2.97 OD; in that of B22, 3.27 OD; in that of B23, 3.16 OD.

Another experiment deals with T2, mouse ACVR2A (mouse, UniProt P27038 20-135, limits assumed).
T2 construct: coated antigen of the initial ELISA
T2 sequence (P27038 20-135 limits assumed): as the sequence (P27037 20-135 limits assumed) above, with K20R, V73I counted along it
Put plainly: ELISA. The gist of the method:
as §1
In turn, B1 yielded an optical density of 3.27 OD.
B2 registered an optical density of 3.68 OD.
In turn, B3 had an optical density of 3.7 OD.
In turn, B4 registered an optical density of 3.63 OD.
Consider B5, for which the optical density came to 3.54 OD.
Regarding B6, the optical density worked out at 3.48 OD.
Consider B7, for which the optical density amounted to 3.77 OD.
In the case of B8, the optical density is 3.33 OD.
B9: the optical density is 3.7 OD.
With B10, the optical density is 3.67 OD.
For the molecule B11, the optical density worked out at 3.68 OD.
On the same count and under the same terms, next, B12: 3.28 OD; B13: 3.64 OD; B14: 3.51 OD.
Regarding B15, the optical density came to 3.75 OD.
Take B16: the optical density is 1.35 OD.
Take B17: the optical density was found to be 3.56 OD.
Molecule B18 yielded an optical density of 3.7 OD.
As for B19, the optical density is 3.69 OD.
B20: the optical density was found to be 2.93 OD.
B21 gave an optical density of 3.64 OD.
B22 had an optical density of 3.64 OD.
For the molecule B23, the optical density came out at 3.65 OD.

The next experiment has as its target T3, human ACVR2A (human, UniProt P27037 20-135, limits assumed).
T3 construct: coated antigen of the initial ELISA; also called activin receptor, type II A
Nature of the experiment: ELISA. The gist of the method: as §1
Take B1: the optical density was found to be 3.25 OD.
Still for that read-out and setting: next, B2: 3.67 OD.
On to B3, for which the optical density amounted to 3.72 OD.
Regarding B4, the optical density was 3.6 OD.
With B5, the optical density worked out at 3.47 OD.
B6 displayed an optical density of 3.3 OD.
As to B7, the optical density turned out to be 3.74 OD.
Molecule B8 had an optical density of 3.67 OD.
Consider B9, for which the optical density stood at 3.69 OD.
Take B10: the optical density amounted to 3.78 OD.
As to B11, the optical density was 3.71 OD.
With B12, the optical density is 3.61 OD.
In turn, B13 yielded an optical density of 3.79 OD.
Still for that read-out and setting: next, B14: 3.43 OD; B15: 3.77 OD.
Same read-out and setting: in the case of B16 it was 0.93 OD; in that of B17, 3.43 OD; in that of B18, 3.71 OD.
The molecule B19 came in with an optical density of 3.71 OD.
In turn, B20 had an optical density of 2.69 OD.
Regarding B21, the optical density came to 3.58 OD.
Molecule B22 showed an optical density of 3.56 OD.
Take B23: the optical density is 3.68 OD.
